From patent US20220041738A1 (SAITAMA MEDICAL UNIVERSITY, published 2022)

T1: human ALK2(R206H)-EGFP on HEK293A cells (human, UniProt Q04771 21-509)
T1 construct: also called hALK2(R206H)-EGFP; FOP human ALK2; not shown: EGFP fused to ALK2
T1 sequence: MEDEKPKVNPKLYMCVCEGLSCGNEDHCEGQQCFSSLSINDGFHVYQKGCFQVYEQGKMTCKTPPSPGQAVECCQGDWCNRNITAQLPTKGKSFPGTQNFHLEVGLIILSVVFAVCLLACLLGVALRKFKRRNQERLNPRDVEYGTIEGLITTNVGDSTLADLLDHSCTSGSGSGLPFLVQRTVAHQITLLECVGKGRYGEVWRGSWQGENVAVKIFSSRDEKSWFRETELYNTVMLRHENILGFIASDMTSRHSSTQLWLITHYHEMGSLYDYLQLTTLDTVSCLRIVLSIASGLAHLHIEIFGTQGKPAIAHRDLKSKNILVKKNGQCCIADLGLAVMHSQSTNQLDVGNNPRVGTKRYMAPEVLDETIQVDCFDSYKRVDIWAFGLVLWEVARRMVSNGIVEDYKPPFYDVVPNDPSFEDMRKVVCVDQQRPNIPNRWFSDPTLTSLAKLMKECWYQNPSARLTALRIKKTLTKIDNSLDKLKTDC

T2: mouse ALK2(WT)-EGFP on HEK293A cells (mouse, UniProt P37172 21-509)
T2 construct: Expressed from pcDEF3/mouse ALK2(WT)-EGFP; also called mALK2(WT)-EGFP; wild-type mouse ALK2; not shown: EGFP fused to ALK2
T2 sequence: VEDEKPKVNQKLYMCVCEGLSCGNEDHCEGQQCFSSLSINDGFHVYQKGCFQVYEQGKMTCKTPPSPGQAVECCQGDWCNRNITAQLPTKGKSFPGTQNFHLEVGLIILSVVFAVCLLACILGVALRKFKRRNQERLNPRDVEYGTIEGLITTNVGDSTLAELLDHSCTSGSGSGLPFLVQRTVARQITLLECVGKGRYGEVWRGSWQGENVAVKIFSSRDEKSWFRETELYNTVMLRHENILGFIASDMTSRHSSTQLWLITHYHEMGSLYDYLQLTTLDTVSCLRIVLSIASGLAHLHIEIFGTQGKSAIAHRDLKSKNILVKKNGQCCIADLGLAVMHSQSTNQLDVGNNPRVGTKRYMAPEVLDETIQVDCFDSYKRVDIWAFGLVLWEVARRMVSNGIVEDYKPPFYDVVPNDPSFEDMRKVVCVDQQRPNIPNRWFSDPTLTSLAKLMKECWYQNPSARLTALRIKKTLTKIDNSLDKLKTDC

T3: Mouse ALK2-His&Fc (Sino Biological Inc., Cat. #50297-M03H) (mouse, UniProt P37172 21-123)
T3 construct: Bought product; also called mALK2-Fc; not shown: His tag and Fc of the bought product
T3 sequence: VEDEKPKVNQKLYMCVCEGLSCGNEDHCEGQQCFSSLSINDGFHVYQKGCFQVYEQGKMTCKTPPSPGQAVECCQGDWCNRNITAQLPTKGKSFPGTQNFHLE


What was measured:
[1] = biological target: T1, human ALK2(R206H)-EGFP on HEK293A cells; assay: flow cytometry on transfected HEK293A cells, Alexa 647 anti-rat IgG (APC-A) against EGFP (FITC-A)
Experimental: (§1) HEK293A cells were seeded into a 100-mm dish at 3×10⁴ cells/cm², and cultured overnight in 15% FBS-containing DMEM medium under the conditions of 5% CO₂ at 37° C. On the following day, the HEK293A cells were transfected with each of pcDEF3/mouse ALK2(WT)-EGFP, pcDEF3/human ALK2(WT)-EGFP, pcDEF3/human ALK2 (R206H)-EGFP, and pcDEF3, using Lipofectamine 2000 (Invitrogen), and further cultured overnight. On the following day, 100 μL each of the cell suspensions adjusted to 1×10⁶ cells/mL was dispensed into a 1.5-mL microfuge and centrifuged at 500 g for 5 minutes, and then the supernatant was removed. To the cells, 100 μL of purified IgG diluted to 1 μg/mL was added, and the cells were left for 30 minutes at 4° C. After the cells were washed with PBS three times, 100 μL of Alexa flour 647 Goat anti-Rat IgG (H+L) (Life Technologies) diluted to 1:200 was added, and the cells were further left for 30 minutes at 4° C. After the cells were washed with PBS three times, fluorescence was detected by a flow cytometer (FACS Aria II: BD Biosciences). The data was analyzed using BD Diva Software (BD Biosciences), and the intensity of EGFP expressed by the cells and the fluorescence intensity of stained Alexa flour 647 were plotted.

[2] = biological target: T2, mouse ALK2(WT)-EGFP on HEK293A cells; assay: as above
Experimental: as §1

[3] = biological target: T3, Mouse ALK2-His&Fc (Sino Biological …); assay: ELISA, antigen coated at 1 µg/ml, hybridoma culture supernatant, ALP anti-rat IgG, O.D.492
Experimental: One week after the cell fusion, using each culture supernatant, clones recognizing mouse ALK2-His&Fc used as the antigen were selected by the enzyme-linked immunosorbent assay (ELISA), and clones recognizing only human Fc (Sino Biological Inc.) were excluded. ELISA was performed as follows.
First, the antigen diluted to 1 μg/ml with PBS was immobilized onto a 96-well ELISA plate (NUNC, Cat. #442404) for 2 hours at room temperature or overnight at 4° C. The immobilized solution was removed, and the plate was blocked with a 0.5% skim milk solution dissolved in PBS for 30 minutes at room temperature. Next, the above-described culture supernatant of hybridomas was added, and the plate was left for 1 hour at room temperature. After the plate was washed, an ALP-labeled anti-rat IgG antibody (SBA, Inc.) diluted with 0.5% skim milk to 1:2500 was added, and the plate was further left for 1 hour at room temperature. After the plate was washed, a phenyl phosphate substrate was reacted for 20 minutes at room temperature, and then absorbance at a wavelength of 492 nm was measured.

binding result [1] | binding result [2] | binding result [3] | Binder
binds | binds | binds | rat anti-ALK2 monoclonal antibody A2-25C (antibody, V domains shown, Rat monoclonal IgG from a hybridoma; also called 25C11) VH: EVQLVESGGGLVQPGGSLKLSCAASGFTFSYYAMSWVCQAPTKGLEWVASISRGGDNTYYRDTVKGRFTTSRDNAKNTLYLQMDSLRSEDTATYYCARLNYNNYFDYWGQGVMVTVSS VL: DIQMTQSPASLSASLEEIVTITCQASQDIGNWLSWYQQKPGKSPQLLIYGATSLADGVPSRFSGSRSGTQYSLKISRLRVEDIGIYYCLQAYSAPFTFGSGTKLEIKR
binds | binds | binds | rat anti-ALK2 monoclonal antibody A2-27D (antibody, V domains shown, Rat monoclonal IgG from a hybridoma; also called 27D11) VH: EVQLVESGGGLVQPGRSLKLSCLASGSTFSNYGMKWIRQAPGKGLEWVASISRSSTYIYYADTVKGRFTISRDNARNTLYLQMTSLRSEDTALYYCAAAISTPFYWYFDFWGPGTVVTVSS VL: EIVLTQSPTTMAASPGEKVTLNCLASSSVSYMTWYQQKSGASPKLWIYGTSNLASGVPNRFSGSGSGTSYSLAISSMEAEDVATYYCLHLTSYPPYTFGAGTKLELKR
binds | binds | binds | rat anti-ALK2 monoclonal antibody A2-15A (antibody, V domains shown, Rat monoclonal IgG from a hybridoma; also called 15A6) VH: EVQLVESGGGLVQPGRSLKLSCAASGFTFSHYYMAWVRQAPTKGLEWVASITNSGGSINYRDSVKGRFTISRDNAKSTLYLQMDSLRSEDTATYYCTREGGENYGGYPPFAYWGQGTLVTVSS VL: DIVLTQSPALAVSLGQRATISCRANQGVSLSRYNLMHWYQQKPGQKPKLLIYRSSNLASGIPARFSGSGSGTDFTLTINPVQADDIATYYCQQSRESPFTFGAGTKLELKR
binds | binds | binds | rat anti-ALK2 monoclonal antibody A2-11E (antibody, V domains shown, Rat monoclonal IgG from a hybridoma; also called 11E2) VH: EVQLVETGGGLVQPGRSLKLSCVASGFTFSNYYMYWIRQAPGKGLEWISSINTDGGSTYYPDSVKGRFAISRDNAENTVYLQMNSLRSEDTATYYCAKSTPNIPLAYWGQGTLVTVSS VL: DIQMTQSPSLLSASVGDRVTLSCKASQNIYKYLNWFQQKLGEAPKLLIYYSNSLQTGIPSRFSGSGSGTDFTLTISSLQPEDVAIYFCFQYSSGPTFGPGTKLELKR
